Where two headings read alike, the source gives them in different places.

Data set [1] addresses T1, rPvSPL2 (GST-PvSPL2) (Panicum virgatum, UniProt A0A8T0WHV5 1-470).
T1 sequence: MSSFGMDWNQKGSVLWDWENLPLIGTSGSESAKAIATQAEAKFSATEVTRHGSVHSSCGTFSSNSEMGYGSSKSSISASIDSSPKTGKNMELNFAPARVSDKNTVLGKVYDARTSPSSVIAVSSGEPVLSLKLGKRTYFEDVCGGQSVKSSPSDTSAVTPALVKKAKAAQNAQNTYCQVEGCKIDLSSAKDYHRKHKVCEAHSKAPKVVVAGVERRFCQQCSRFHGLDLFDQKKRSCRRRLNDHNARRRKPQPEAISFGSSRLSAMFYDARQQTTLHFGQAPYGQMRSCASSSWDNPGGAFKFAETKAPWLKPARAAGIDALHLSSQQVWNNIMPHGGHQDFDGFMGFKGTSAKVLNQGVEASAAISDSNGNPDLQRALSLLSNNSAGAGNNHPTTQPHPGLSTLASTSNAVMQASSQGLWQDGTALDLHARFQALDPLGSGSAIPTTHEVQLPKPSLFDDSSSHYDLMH
Put plainly: EMSA. A general note: A gel shift assay detects complexes by their altered migration in electrophoresis.

In data set [2] the target is T1, rPvSPL2 (GST-PvSPL2). As to the kind of experiment: EMSA. The source holds these as a separate data set.

B1: PvLBO promoter probe 1 (site 1) (dsDNA)
DNA 1: CCCCCCAAACGTACTATTTACTAT
DNA 2: ATAGTAAATAGTACGTTTGGGGGG
Regarding B1, the binding result with rPvSPL2 (GST-PvSPL2) [1] is “binds”.

B2: PvLBO promoter probe 2 (site 2) (dsDNA)
DNA 1: TACAATATTTGTACTGTCATAATA
DNA 2: TATTATGACAGTACAAATATTGTA
As for B2, the binding result in the data set with rPvSPL2 (GST-PvSPL2) [2] is on record as “binds”.

These data come from PMC9321131.
